Key:
CUL3 = experiment: Co-IP of Myc-CUL3 with HA-fused NPR1 or variants; type: binding, Arabidopsis thaliana; conditions: for CUL3 pull-down signal in co-IP: 1 mM SA for 5 hr
Experimental: (§1) Plant transformation: For plant transformations, the Agrobacterium tumefaciens strain GV3101 was transformed with plant binary vectors carrying the indicated transgenes. For stable expression in Arabidopsis, a floral dipping method was used. For transient expression in N benthamiana, the Agrobacterium carrying the indicated construct was cultured overnight at 28° C. in Luria-Bertani (LB) broth medium supplemented with appropriate antibiotics: spectinomycin (100 μg/ml), kanamycin (50 μg/ml), gentamycin (50 μg/ml), and rifampicin (25 μg/ml). The obtained culture was re-inoculated at 1:10 into fresh growth media with antibiotics and grown for another 4 hr. Cells were then spun down at 1,600 g for 10 min, and inoculum was prepared by resuspending cells to OD600 nm=1 in double distilled water (DDW) containing 200 μM acetosyringone (Sigma). Unless otherwise stated, for co-IP, co-localization, and BiFC assays in N. benthamiana, the proteins were co-expressed at 1:1 mixture of the relevant Agrobacteria inoculums. In all BiFC assays, the pair of YN/YC fusions was co-expressed together with free mCherry to mark the cytoplasm and nucleus, mCherry-NLS to mark the nucleus only, or mCherry-fused test proteins for co-localization analysis. The inoculum was pressure infiltrated into N. benthamiana leaves at the abaxial side using 1 ml syringe without the needle. Due to low overall levels of NPR1-GFP in transgenic plants, a transient expression assay in Arabidopsis seedlings was used to monitor NPR1-GFP subcellular localization after SA treatment (FIG. 2B). To limit the imaging time in this transient assay (2 hours), a higher baseline SA concentration had to be used. Seeds of WT (Col-0) Arabidopsis were germinated on solid half-strength Murashige and Skoog (1/2 MS) medium and grown for 4 days. Agrobacterium carrying the indicated constructs was grown overnight in LB medium supplemented with appropriate antibiotics. The obtained culture was re-inoculated at 1:10 into virulence induction medium [50.78 mM MES, 0.5% Glucose, 1.734 mM NaH2PO4, 5% of 20X-AB mix (373.9 mM NH4C1, 24.34 mM MgSO4, 40.23 mM KCl, 1.36 mM CaCl2 and 0.18 mM FeSO4·7H2O), 200 μM acetosyringone] supplemented with 25 μg/ml rifampicin and grown for another 24 hr at 28° C. to OD600=0.8 (inoculum). Seedlings were vacuum-infiltrated with the inoculum, and at 48 hpi (hours post inoculation), treatments were performed by submerging the transformed seedlings in water or SA solution at indicated concentrations for 2 hr. Entire cotyledons were sampled for microscopy.
Protein analysis and IP. Recombinant protein analysis was performed using transient expression in N. benthamiana, or stable over-expression in transgenic Arabidopsis, or expression in E. coli. Total protein extraction from plants was performed by homogenizing leaf tissue in the plant extraction buffer [50 mM Tris-HCl (pH 7.5), 150 mM NaCl, 5 mM EDTA, 0.2% Triton X-100, 0.2% Nonidet P-40] supplemented with 1 mM PMSF, 100 μM MG132, and EDTA-free protease inhibitor cocktail (Roche). For ubiquitinated protein analysis in plants, 100 μM of DUB (deubiquitinase) inhibitor (LifeSensors) and 10 mM NEM were added. Next, the lysates were cleared by centrifugation at 14,000 rpm for 15 min followed by filtering through a 0.2 μm filter. […] Pull-downs or IP experiments were done on total protein extracts by incubating protein samples in the lysis buffer overnight with indicated affinity tag or antibody conjugated to agarose or magnetic beads: GFP-trap agarose beads (Chromotek) for GFP fusions; RFP-trap agarose beads (Chromotek) for mCherry fusions; anti-HA magnetic beads (ThermoFisher) for HA tag fusions; anti-DYKDDDDK coupled magnetic agarose (ThermoFisher) for FLAG tag fusions; and glutathione magnetic agarose (ThermoFisher) for GST fusions. Unless otherwise indicated, after pull-down/IP, beads were washed 3 times and proteins were eluted by boiling in the 2×SDS sample buffer. […]

[1] = tested on: cytoplasmic condensates (SINCs); experiment: Confocal imaging of localization and condensate (body) formation of GFP-fused NPR proteins and variants; type: cell-based, Nicotiana benthamiana; conditions: for condensate formation in the absence of SA (constitutive): no SA treatment / mock
Experimental: as §1
Confocal laser scanning microscopy. Unless otherwise indicated, all imaging data and micrographs for single protein imaging, co-localizations, BiFC and time-lapse were obtained from the transient expression in N. benthamiana using the relevant Agrobacteria strains. All imaging was done with confocal laser scanning fluorescence microscopy using Zeiss 880 airyscan inverted confocal microscope with a 40×/1.2 water correction objective. GFP (eGFP) was excited with a 488 nm argon laser and emission was collected with a 505-530 nm band pass filter. YFP was excited with an argon laser using a 514 nm beam splitter, and emission was detected with a 520-555 nm band pass filter. mCherry was excited with a 561 nm diode laser, and emission was detected with a 575-615 nm band pass filter. When eGFP/YFP were imaged together with mCherry, a spectral GASP detector was used to collect emission from eGFP/YFP. Propidium iodide (PI) was excited with 488 nm argon laser and emission was detected with a 590-620 nm band pass filter. Time-lapse imaging was carried out on live leaf tissue samples from N. benthamiana plants transiently expressing the protein of interest. Image acquisition was done in 5 min intervals for the duration of 2 hr by scanning 30 consecutive focal planes along the Z-axis covering the entire thickness of an epidermal cell. Z-projection was done to each time frame stack before composing a final time-lapse file. […]

[2] = tested on: Psm ES4326/AvrRpt2-mediated cell death; experiment: Cell death (conductivity/electrolyte leakage, trypan blue) after Psm ES4326/AvrRpt2 inoculation; type: in vivo, Arabidopsis thaliana; conditions: transgenic plants expressing the mutant in npr1-2 background; 1 mM SA 24 hr before inoculation
Experimental: Chemical treatment, pathogen infection and cell death assays. […] At 2 days, the bacterial colonies were scored.
Trypan blue staining. Leaves of three-week-old Arabidopsis infected with Psm ES4326/AvrRpt2 were sampled at 1 dpi, boiled in 95% ethanol until completely bleached, followed by boiling for 3 min in a 1:1 mixture of 95% ethanol and staining solution (10 ml lactic acid, 10 ml glycerol, 10 g phenol and 10 mg trypan blue, dissolved in 10 ml DDW). The leaves were then de-stained in 2.5 g/ml chloral hydrate solution and transferred to 70% glycerol for subsequent imaging.

Molecule	CUL3 pull-down in co-IP in the absence of SA (CUL3)	condensate formation in the absence of SA (constitutive) [1]	CUL3 pull-down signal in co-IP (CUL3)	further results
BTB: BTB domain of NPR1 corresponding to amino acids 65-144 of SEQ ID NO: 1 (protein, listed as Arabidopsis thaliana) SDAKLVLSDGREVSFHRCVLSARSSFFKSALAAAKKEKDSNNTAAVKLELKEIAKDYEVGFDSVVTVLAYVYSSRVRPPP	sufficient to strongly pulldown CUL3 even in the absence of SA			
rdr1: NPR1 with cysteine cluster of RDR1 mutated (C150/155/156/160A) (protein, A. thaliana npr1 rdr1 protein) MDTTIDGFADSYEISSTSFVATDNTDSSIVYLAAEQVLTGPDVSALQLLSNSFESVFDSPDDFYSDAKLVLSDGREVSFHRCVLSARSSFFKSALAAAKKEKDSNNTAAVKLELKEIAKDYEVGFDSVVTVLAYVYSSRVRPPPKGVSEAADENAAHVAARPAVDFMLEVLYLAFIFKIPELITLYQRHLLDVVDKVVIEDTLVILKLANICGKACMKLLDRCKEIIVKSNVDMVSLEKSLPEELVKEIIDRRKELGLEVPKVKKHVSNVHKALDSDDIELVKLLLKEDHTNLDDACALHFAVAYCNVKTATDLLKLDLADVNHRNPRGYTVLHVAAMRKEPQLILSLLEKGASASEATLEGRTALMIAKQATMAVECNNIPEQCKHSLKGRLCVEILEQEDKREQIPRDVPPSFAVAADELKMTLLDLENRVALAQRLFPTEAQAAMEIAEMKGTCEFIVTSLEPDRLTGTKRTSPGVKIAPFRILEEHQSRLKALSKTVELGKRFFPRCSAVLDQIMNCEDLTQLACGEDDTAEKRLQKKQRYMEIQETLKKAFSEDNLELGNSSLTDSTSSTSKSTGGKRSNRKLSHRRR		formed cytoplasmic condensates in the absence of SA treatment	strong interactions with CUL3	protection against cell death induced by Psm ES4326/AvrRpt2 (SA-mediated survival phenotype) [2]: no protection against cell death
nls: NPR1 point mutant with enhanced cytoplasmic localization, blocking nuclear function (protein, left off: small tags and cut ends) MDTTIDGFADSYEISSTSFVATDNTDSSIVYLAAEQVLTGPDVSALQLLSNSFESVFDSPDDFYSDAKLVLSDGREVSFHRCVLSARSSFFKSALAAAKKEKDSNNTAAVKLELKEIAKDYEVGFDSVVTVLAYVYSSRVRPPPKGVSECADENCCHVACRPAVDFMLEVLYLAFIFKIPELITLYQRHLLDVVDKVVIEDTLVILKLANICGKACMKLLDRCKEIIVKSNVDMVSLEKSLPEELVKEIIDRRKELGLEVPKVKKHVSNVHKALDSDDIELVKLLLKEDHTNLDDACALHFAVAYCNVKTATDLLKLDLADVNHRNPRGYTVLHVAAMRKEPQLILSLLEKGASASEATLEGRTALMIAKQATMAVECNNIPEQCKHSLKGRLCVEILEQEDKREQIPRDVPPSFAVAADELKMTLLDLENRVALAQRLFPTEAQAAMEIAEMKGTCEFIVTSLEPDRLTGTKRTSPGVKIAPFRILEEHQSRLKALSKTVELGKRFFPRCSAVLDQIMNCEDLTQLACGEDDTAEKRLQQQQGYMEIQETLQQAFSEDNLELGNSSLTDSTSSTSKSTGGKRSNRKLSHRRR			significantly stronger CUL3 pull-down signals	
CTD: C-terminal domain (CTD) of NPR1 (protein, left off: large carriers, C-terminal domain (CTD) of NPR1) ALMIAKQATMAVECNNIPEQCKHSLKGRLCVEILEQEDKREQIPRDVPPSFAVAADELKMTLLDLENRVALAQRLFPTEAQAAMEIAEMKGTCEFIVTSLEPDRLTGTKRTSPGVKIAPFRILEEHQSRLKALSKTVELGKRFFPRCSAVLDQIMNCEDLTQLACGEDDTAEKRLQKKQRYMEIQETLKKAFSEDNLELGNSSLTDSTSSTSKSTGGKRSNRKLSHRRR				competition with CUL3 for interaction with BTB (CUL3; Myc-CUL3, BTB-HA and CTD-GFP co-expressed): outcompeted CUL3 for interaction with BTB
NPR4: Arabidopsis NPR1 paralog AtNPR4 (AT4G19660) (protein, UniProt Q5ICL9 1-574, looked up) Regulatory protein NPR4: MAATAIEPSSSISFTSSHLSNPSPVVTTYHSAANLEELSSNLEQLLTNPDCDYTDAEIIIEEEANPVSVHRCVLAARSKFFLDLFKKDKDSSEKKPKYQMKDLLPYGNVGREAFLHFLSYIYTGRLKPFPIEVSTCVDSVCAHDSCKPAIDFAVELMYASFVFQIPDLVSSFQRKLRNYVEKSLVENVLPILLVAFHCDLTQLLDQCIERVARSDLDRFCIEKELPLEVLEKIKQLRVKSVNIPEVEDKSIERTGKVLKALDSDDVELVKLLLTESDITLDQANGLHYAVAYSDPKVVTQVLDLDMADVNFRNSRGYTVLHIAAMRREPTIIIPLIQKGANASDFTFDGRSAVNICRRLTRPKDYHTKTSRKEPSKYRLCIDILEREIRRNPLVSGDTPTCSHSMPEDLQMRLLYLEKRVGLAQLFFPAEANVAMDVANVEGTSECTGLLTPPPSNDTTENLGKVDLNETPYVQTKRMLTRMKALMKTVETGRRYFPSCYEVLDKYMDQYMDEEIPDMSYPEKGTVKERRQKRMRYNELKNDVKKAYSKDKVARSCLSSSSPASSLREALENPT				SA-induced cytoplasmic body/condensate (SINC) formation ([1]; 5 mM SA for 2 hr): fail to form cytoplasmic condensates
ACTD: NPR1 with the C-terminal domain (CTD) deleted (protein, left off: small tags and cut ends, NPR1 with the C-terminal domain (CTD) deleted) MDTTIDGFADSYEISSTSFVATDNTDSSIVYLAAEQVLTGPDVSALQLLSNSFESVFDSPDDFYSDAKLVLSDGREVSFHRCVLSARSSFFKSALAAAKKEKDSNNTAAVKLELKEIAKDYEVGFDSVVTVLAYVYSSRVRPPPKGVSECADENCCHVACRPAVDFMLEVLYLAFIFKIPELITLYQRHLLDVVDKVVIEDTLVILKLANICGKACMKLLDRCKEIIVKSNVDMVSLEKSLPEELVKEIIDRRKELGLEVPKVKKHVSNVHKALDSDDIELVKLLLKEDHTNLDDACALHFAVAYCNVKTATDLLKLDLADVNHRNPRGYTVLHVAAMRKEPQLILSLLEKGASASEATLEGRT	significantly enhanced the interaction with CUL3	formed constitutive condensates		

Reference: patent US20230227838A1, “ENHANCED CELL SURVIVAL AGAINST BIOTIC AND ABIOTIC STRESSES THROUGH SALICYLICK ACID-INDUCED NPR1 CONDENSATES” (priority 2020, published 2023)
